Laboratory results: the nanobody polyreactivity screen of Harvey et al. (2022)

Assay: yeast display, Sf9 membrane polyspecificity reagent, FACS + sequencing; frameworks hold sequencing errors
How it was run: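 After 36–48 hours of galactose induction, yeast (Saccharomyces cerevisiae BJ5465) displaying a synthetic nanobody library were stained at 4 °C for 1 hour with 10% biotinylated, detergent-solubilized Sf9 membrane reagent. Streptavidin microbeads enriched the stained cells before FACS sorting into low and high (top ~1%) gates on anti-HA and streptavidin fluorescence. Each clone's polyreactivity label reflects its gate of origin.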

Sequence | polyreactivity (PSR sort gate)
QVQLVESGGGLVQAGGSLRLSCAASGSTLYFYAMGWYRQAPGKERELVASISGTGGRTDYADSVKGRFTISRDNAKNTVYLQMNSLKPEDTAVYYCAARGLVYQSNRYYGYRDYYYWGQGTQVTVSS | high polyreactivity
QVQLVESGGGLVQAGGSLRLSCAASGSTLYGNVMGWFRQAPGKERELVATINRGGSTNYADSVKGRFTISRDNAKNTVYLQMNSLKPEDTAVYYCAVYHYSSYEYLGQGTQVTVSS | low polyreactivity
QVQLVESGGGLVQAGGSLRLSCAASGSTLYGYAMGWYRQAPGKERELVAAISSSGTRTYYADSVKGRFTISRDNAKNSVYLQMNSLKPEDTAVYYCNAYYYIPFEGRGYSKMDYWGQGTQVTVSS | high polyreactivity
QVQLVESGGGLVQAGGSLRLSCAASGSTLYIYAKGWYRQAPGKETEFDADFSWSGGSTYYADSVKGRFTISRDYASNTVYLQMNSQKPEDTAVYNCNGDFTDSYLSRYDYWGQGTQVTVSS | low polyreactivity
QVQLVESGGGLVQAGGSLRLSCAASGSTLYNYAMGWYRQAPGKERELVAAITKSGGRTYYADSVKGRFTISRDNAKNTVYLQMNSLKAEDTAVYYCAADRTQYARFDSWGQGTQVTVSS | high polyreactivity
QVQLVESGGGLVQAGGSLRLSCAASGSTLYPNPMGWYRQAPGTERELVAAISGTGGGTYYADSVKGRFTISRDNAKNTVYLQMNSLKPEDTAVYYCAADYVFAWWGDYYWGQGTQVTVSS | high polyreactivity
QVQLVESGGGLVQAGGSLRLSCAASGSTLYRNGMGWYRQAPGKEMEFVAAISWSGASTYYADSVKGRFTISRDNAKNTVYLQMNSLKPEDTAVYYCNARGPTVYETHNYWGQGTQVTVSS | low polyreactivity
QVQLVESGGGLVQAGGSLRLSCAASGSTLYVNAMGWYRQAPGKERELVAAISWSGGSTNYADSVKGRFTISRDNAKNTVYLQMNSLKPEDTAVYYCNVDSVVWDNAWYLYDYWGQGTQVTVSS | low polyreactivity
QVQLVESGGGLVQAGGSLRLSCAASGSTLYWNAMGWYRQAPGKERELVAGISIGGRTNYADSVKGRFTISRDNAKNTVYLQMNSLKPEDTAVYYCNAENTYLGSRYRPYNYWGQGTQVTVSS | low polyreactivity
QVQLVESGGGLVQAGGSLRLSCAASGSTLYWYAMGWYRQAPGKERELVAAITSGGNTYYADSVKGRFTISRDNAKNTVYLQMNSLKPEDTAVSYCAVGSFGVSAYSYYYWGQGTQVTVSS | low polyreactivity
QVQLVESGGGLVQAGGSLRLSCAASGSTLYYYAMGWYRQAPGKERELVAAISSGGRTYYADSVKGRFTISRDNAKNTVYLQMNSLKPEDTAVYYCNAVRYQKIFDYWGQGTQVTVSS | high polyreactivity
QVQLVESGGGLVQAGGSLRLSCAASGSTLYYYAMGWYRQAPGKERELVATITNGGSTNYADSVKGRFTISRDNAKNTVYLQMNSLKPEDTAVYYCNARRGYWGSHYWGQGTQVTVSS | high polyreactivity
QVQLVESGGGLVQAGGSLRLSCAASGSTLYYYVMGWYRQAPGKERELVAAISSSGDSTYYADSVKGRFTISRDNAKNTVYLQMTSLKPEDTAVYYCNAGWYFYGETTDDYWGQGTQVTVSS | low polyreactivity
QVQLVESGGGLVQAGGSLRLSCAASGSTMAPYAMGWYRQAPGTERELVASINWGGTTTYYADSVKGRFTISRDNAKNTVYLQMNSLKPEDTAVYYCAALGLRWGRSGYYYEYYYWGQGTQVTVSS | high polyreactivity
QVQLVESGGGLVQAGGSLRLSCAASGSTPDGYGMGWYRQAPGKERELVAVITIGGGRTYYADSVKGRFTISRDNAKNTVYLQMNSLKAVDTAVYYCAAKGWRRYYIGDYWGQGTQVTVSS | high polyreactivity
QVQLVESGGGLVQAGGSLRLSCAASGSTQVYYDMGWYRQAPAKERELVATITGTDSTYYADSVKGRFTISRDNAKNTVYLQMNSLKPEDTADCAADRAASRPDYDYWGEGTQVTVSS | low polyreactivity
QVQLVESGGGLVQAGGSLRLSCAASGSTRRYVMAWYRQAPGKEMELVAAISYSGGSTYYADSVKGRFTISRDNAKNTVYLQMNSLKPEETAVYYCAADGYSGQYGGHMGYWGQGTQVTVSS | high polyreactivity
QVQLVESGGGLVQAGGSLRLSCAASGSTRRYVMGWYRQAPWKERELVAAISYSGGSTYYADSVKGRFTISRDNAKNTVYLQMNSLKPEDTAVYYCAADGYSGQYGGHMGYWGQGTQVTVSS | high polyreactivity
QVQLVESGGGLVQAGGSLRLSCAASGSTSAAYAMGWYRQAPGKERELVAAISKRGGSTYYADSVKGRFTISRDNAKNTVYLQMNSLKPEDTAVYYCNKYHFPGYWSRFDYWGQGTQVTVSS | high polyreactivity
QVQLVESGGGLVQAGGSLRLSCAASGSTSARYAMGWYRQAPGKERELVATITRSGTTKYADSVKGRFTISRDNAKNTVYLQMNSLKPEDTAVYYCNSDTYFPLYDYWGQGTQVTVSS | low polyreactivity
QVQLVESGGGLVQAGGSLRLSCAASGSTSAYYAMGWYRQAPGKERELVAAISWSGGLTYYADSVKGRFTISRDNAKNTVYLQMNSLKPEDTAVYYCAASSYPYGYDYWGQGTQVTVSS | high polyreactivity

Sequence | polyreactivity (PSR sort gate)
QVQLVESGGGLVQAGGSLRLSCAASGSTSDSYAMGWYRQAPGKERELVAAISRGTNTYYADSVKGRFTISRDNAKNTVYLQLNRLKPEDTAVYYCNKVQYLRKYWVTPTGQRFGYWGQGTQVTVSS | high polyreactivity
QVQLVESGGGLVQAGGSLRLSCAASGSTSDVYAMGWYRQAPGKEREFVAAIRFSGGSTYYADSVKGRFTISRDNAKNTVYLQMNSLKPEDTAVYYCAKRWGIWPRGYYWGQGTQVTVSS | low polyreactivity
QVQLVESGGGLVQAGGSLRLSCAASGSTSETYAMGWYRQAPGKERELVAAISGNGASTYYADSVKGRFTISRDNAKNTVYLQMNSLKPDDTAVYYCAAYFYYWGSTFVRYEYWGQGTQVTVSS | high polyreactivity
QVQLVESGGGLVQAGGSLRLSCAASGSTSGKNAMGWYRQAPGKERELVAVITYSGSRTYYADSVKGRFTISRDNAKNTVYLQMNSLIPEDTAVYYCAAVGGGVSFRGNYWGQGTQVTVSS | high polyreactivity
QVQLVESGGGLVQAGGSLRLSCAASGSTSGKYAMGWYRQAPGKERELVAGITKGGGGTYYADSVKGRFTISRDNAKNTVYLQMNSLKPEDTAVYYCAAGTLYSLYFGRHGYWGQGTQVTVSS | low polyreactivity
QVQLVESGGGLVQAGGSLRLSCAASGSTSGLYAMGWYRQAPGKERELVATISLSGGSTYYADSVKGRFTISRDNAKNTVYLQMNSLKPEDTAVYYCNTDKYKWNYGSTYRMDYWGQGTQVTVSS | low polyreactivity
QVQLVESGGGLVQAGGSLRLSCAASGSTSGSNAMGWYRQAPGKERELVAGISYSTADTNYADSVKGRFTISRDNAKNTVYLQMNSLKPEDTAVYYCATDPFGIASRHDDYWGQGTQVTVSS | low polyreactivity
QVQLVESGGGLVQAGGSLRLSCAASGSTSGSYGMGWYRQAPGKERELVAAIRISGDSTYYADSVKGRFTISRDNAKNTVYLQMNSLKPEDTAVYYCAAEAFFWYYGWYDYWGQGTQVTVSS | high polyreactivity
QVQLVESGGGLVQAGGSLRLSCAASGSTSHQYAMGSYRQAPGKERELVAAISSRAGSTYYADSVKGRFTISRDNAKNTVYLQMNSLKPEDTAVYYCAAEADSWKWGYDYWGQGTQVTVSS | low polyreactivity
QVQLVESGGGLVQAGGSLRLSCAASGSTSIYYTMGWYRQAPGKERELVAAITRGGRTYYADSVKGRFTISRDNAKNTVYLQMNSLKPEDTAVYYCAATTYLVWGYNYWGQGTQVTVSS | low polyreactivity
QVQLVESGGGLVQAGGSLRLSCAASGSTSKVYAMGWSRQAPGKERELVAAITFSGGSTYADSVKGRFTISRDNAKNTVYLQMNSLKPEDTAVYYCAVEVPYSWWWLVDYWGQGTLVTVSS | high polyreactivity
QVQLVESGGGLVQAGGSLRLSCAASGSTSLYYAMGWYRPAPGKEREFVAAITWSGGSTYYADSVKGRFTISRDNAKNTVYLQMNSLKPEDTAVYYCAARSYGYSAGYYWGQGTQVTVSS | high polyreactivity
QVQLVESGGGLVQAGGSLRLSCAASGSTSPGYAMGWYRQAPWKERELVAAITFRGTRTYYADSVKGRFTISRDNSKNTVYLQMNSLKPEDTEVYYCNVVGYGPNRGRVDYWGQGTLVTVSS | high polyreactivity
QVQLVESGGGLVQAGGSLRLSCAASGSTSQPYDMGWYRQAPGTERELVASITNGGSTNYADSVKGRFTISRDNAKNTVYLQMNSLNPEDTAVDYCATRNGYSGTYGYWGQGTQVTVSS | low polyreactivity
QVQLVESGGGLVQAGGSLRLSCAASGSTSQVNDMGWYRQAPGKERELVAAISSTGDRTYYADSVKGRFTISRDNAKNTVYLQMNSLKPEDTAVYYCNADLTSYYEEDERNDDDYWGQGTQVTVSS | low polyreactivity
QVQLVESGGGLVQAGGSLRLSCAASGSTSRIYGMGWYRQAPGTDRELVAAITRSGNTYADSVKGRFTISRDNANNTDYLQMNSLKPDDTAVYYCATAWRFTYFGYEYWGQGTQVTVSS | high polyreactivity
QVQLVESGGGLVQAGGSLRLSCAASGSTSRSAMGWYRQAPGKERELVASITRGGSTYYADSVKGRFTISRDNAKNTVYLQMNSLKPEDTAVYYCAARFPQHNYWAMDYWGQGTQVTVSS | high polyreactivity
QVQLVESGGGLVQAGGSLRLSCAASGSTSSYNAMGWYRQAPGKERELVAAINSGDNTYYADSVKGRFTISRDNAKNTVYLQMNSLKPDDTAVYYCNKVTRNFNYDYWGQGTQVTVSS | low polyreactivity
QVQLVESGGGLVQAGGSLRLSCAASGSTSVDYTMGWYRQAPGKERELVAAIDYNGDSTYYADSVKGRFTISRDNAKNTVYLQMNSLKPEDTAVYYCAADYLSFVVVKLYGYWGQGTQVTVSS | low polyreactivity
QVQLVESGGGLVQAGGSLRLSCAASGSTSVVNPMGWSRPAPGTERELVAAISWSGGSTYYADSVKGRFTISRDNAKNTVYLQMNSLKPEDTAVYYCAKRRVYYGSRYNYWGQGTQVTVSS | high polyreactivity
